Drawing on publication PMC10791742 (2024), this text covers koff and Kd for one molecule.

For experiment [1], the target named is T1, myotoxin II from Bothrops asper (Bothrops asper, UniProt P24605 17-137, biotin (EZ-Link NHS-PEG4-Biotin, molar ratio 1:1.5 toxin:biotin)). Put plainly: BLI. (In general: BLI is a label-free optical method that tracks binding on a fibre tip over time.)
Experiment [2] concerns the target T1, myotoxin II from Bothrops asper. The experiment is described as follows: BLI. This is another data set of the same source.

T1 sequence (P24605 17-137): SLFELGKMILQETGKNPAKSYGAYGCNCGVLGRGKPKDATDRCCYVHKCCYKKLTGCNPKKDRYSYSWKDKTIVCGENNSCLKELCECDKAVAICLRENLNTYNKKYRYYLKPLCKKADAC

B1: G08(LALA + YTE) human IgG1 (antibody, V domains shown)
VH: EVQLVESGGGVVQPGRSLRLSCAASGFTFSSYGMHWVRQAPGKGLEWVAVISYDGSNKYYADSVKGRFTISRDNSKNTLYLQMNSLRAEDTAVYYCARTNYDSGDAFDIWGQGTLVTVSS
VL: NFMLTQPHSVSESPGKTVTISCTRSSGSIASNYVQWYQQRPGSSPTTVIYEDNQRPSGVPDRFSGSIDSSSNSASLTISGLKTEDEADYYCQSYDSSTVVFGGGTKLTVL
The term koff denotes the rate constant with which the complex falls apart. A word on the Kd: it is the free concentration of one partner at which half of the binding sites on the other are occupied at equilibrium, for simple one-to-one binding. For B1, the koff in experiment [1] was determined as 0.00283 s⁻¹. Further, the Kd in experiment [2] was found to be 9.41 nM.
